Experimental data from paper PMC2948610.

How the values were obtained:
Assay in all cases: thioflavin T fluorescence
[1] = target: MSP2_(1–25), recombinant 25-residue peptide corresponding to the entire conserved N-terminal domain of mature MSP2 (Plasmodium falciparum)
[2] = target: [F11A,I12A]MSP2_(1–25) (Plasmodium falciparum)
[3] = target: [Y7A,Y16A]MSP2_(1–25) (Plasmodium falciparum)

## MSP2_(1–25), recombinant 25-residue peptide corresponding to the entire conserved N-terminal domain of mature MSP2
[1]
  lag time of fibril formation: 1 h
  time to maximum ThT fluorescence (fibril formation): 2 h

## [F11A,I12A]MSP2_(1–25) (peptide)
[2]
  lag time of fibril formation: 3.5 h
  time to maximum ThT fluorescence (fibril formation): 9 h

## [Y7A,Y16A]MSP2_(1–25) (peptide)
[3]
  lag time of fibril formation: 1 h
  time to maximum ThT fluorescence (fibril formation): 2 h
